Reference: US20260049134A1 (UNIVERSITY OF FLORIDA RESEARCH FOUNDATION, published 2026)
Where a chain is given by its changes, count along the chain named. Names and notes keep the numbering of the source. One block for each binder: values may come before it.

Columns and labels:
[1] = target: T1, ICAM1, endogenous in H929 multiple myeloma cells (human, UniProt P05362 28-532); test: flow cytometry, H929 + vehicle; None 2.74
T1 construct: Native protein on H929 cells (flow cytometry, siRNA knockdown) and in H929 lysates (IP/MS); also called CD54
T1 sequence (P05362 28-532 limits assumed): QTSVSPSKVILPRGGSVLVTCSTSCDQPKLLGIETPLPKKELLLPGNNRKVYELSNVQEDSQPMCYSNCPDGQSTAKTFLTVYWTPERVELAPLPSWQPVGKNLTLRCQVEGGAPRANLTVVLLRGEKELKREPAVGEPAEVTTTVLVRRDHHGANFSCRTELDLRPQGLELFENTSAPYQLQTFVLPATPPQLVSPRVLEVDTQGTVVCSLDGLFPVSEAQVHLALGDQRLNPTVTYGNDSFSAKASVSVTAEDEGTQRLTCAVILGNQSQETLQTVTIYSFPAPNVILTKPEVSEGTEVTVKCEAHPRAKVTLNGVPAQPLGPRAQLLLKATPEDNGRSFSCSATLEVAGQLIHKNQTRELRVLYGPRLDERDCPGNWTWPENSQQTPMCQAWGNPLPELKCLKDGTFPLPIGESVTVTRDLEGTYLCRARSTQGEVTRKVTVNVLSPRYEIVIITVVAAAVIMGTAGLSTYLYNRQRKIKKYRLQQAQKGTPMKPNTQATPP

[2] = target: T1, ICAM1, endogenous in H929 multiple …; test: flow cytometry, H929 + NT Green siRNA; None 416
[3] = target: T2, CADM1, endogenous in H929 multiple myeloma cells (human, UniProt Q9BY67 45-442); test: flow cytometry, H929 + NT Green siRNA; None 1.35
T2 construct: Native protein on H929 cells (flow cytometry, siRNA knockdown) and in H929 lysates (IP/MS); RPMI-8226 cells were used for sorting with HW-97; also called IGSF4A
T2 sequence: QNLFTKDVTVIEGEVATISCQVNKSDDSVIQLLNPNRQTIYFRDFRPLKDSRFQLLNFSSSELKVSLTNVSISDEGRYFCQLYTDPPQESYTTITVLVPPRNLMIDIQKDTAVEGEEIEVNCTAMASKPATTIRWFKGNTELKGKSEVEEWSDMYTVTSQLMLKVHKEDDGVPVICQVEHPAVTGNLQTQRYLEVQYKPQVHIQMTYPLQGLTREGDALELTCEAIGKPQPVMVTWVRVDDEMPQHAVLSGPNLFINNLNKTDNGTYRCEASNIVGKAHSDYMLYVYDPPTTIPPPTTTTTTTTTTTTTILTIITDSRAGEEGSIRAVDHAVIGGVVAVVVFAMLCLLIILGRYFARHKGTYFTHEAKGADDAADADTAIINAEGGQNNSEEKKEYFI

[4] = target: T1, ICAM1, endogenous in H929 multiple …; test: IP from H929 cell lysate, LC-MS/MS, heatmap
Description: (§1) Immunoprecipitation. […] After 30 min of rocking at 4° C., and lysates were centrifuged at 18,400×g for 20 min at 4° C. Subsequently, 1-mL aliquots of the supernatants were pre-cleared twice with Protein G agarose (Thermo Fisher Scientific) by adding 50 μL of 50% resin slurry and incubating 30 min with end-over-end tumbling at 4° C., followed by centrifugation at 16,000×g for 5 min and pooling of the pre-cleared cell lysate aliquots. Representative mAbs from each cluster were immobilized on Protein G agarose at a ratio of 25 μg IgG1 per 30 μL of 50% slurry, diluted to 500 μL with Dulbecco's PBS (DPBS) and incubated for 1 h at 4° C. with tumbling, followed by centrifugation at 5,000×g for 30 s and 2 washes with lysis buffer. After the last wash, the ˜15 μL of IgG1-coated resin was blocked with 10 μL of 10% BSA (MilliporeSigma). Next, 1 mL of the pooled pre-cleared cell lysate was added to the IgG1-coated resin and incubated for 3 h at 4° C. with tumbling. The immune complexes were pelleted by centrifugation at 2,500×g at 4° C. for 30 s, and gently resuspended to wash for 3 min in 1 mL of lysis buffer, which was repeated once with lysis buffer and twice with an identical wash buffer lacking Triton X-100. Finally, the immune complexes were eluted from the resin with three batch-wise steps using 30 μL of elution buffer (6 or 8 M urea (MilliporeSigma), 20 mM Tris-HCl pH 7.5, and 100 mM NaCl) and incubating 15 min at RT with 450 rpm orbital agitation. Finally, 16 μL of the eluate (˜20%) was analyzed on a reducing SDS-PAGE gel stained with SYPRO Ruby dye (Bio-Rad Laboratories), while the rest was stored at −80° C. prior to LC-MS/MS analysis.
(§2) Protein elutions in 6 or 8 M urea were reduced with 15 mM dithiothreitol at 56° C. for 30 min followed by alkylation with 30 mM iodoacetamide in the dark at RT. The elutions were then diluted to 1 M urea with 50 mM ammonium bicarbonate pH 7.8 and digested overnight at 37° C. following the addition of 4 μg trypsin (Promega).

[5] = target: T2, CADM1, endogenous in H929 multiple …; test: IP from H929 cell lysate, LC-MS/MS, heatmap
Description: as §1, §2

[6] = target: T3, PTPRG, endogenous in H929 multiple myeloma cells (human, UniProt P23470 20-1445); test: IP from H929 cell lysate, LC-MS/MS, heatmap
T3 construct: Native protein on H929 cells (flow cytometry, siRNA knockdown) and in H929 lysates (IP/MS); also called phosphatase receptor type γ
T3 sequence (P23470 20-1445 limits assumed): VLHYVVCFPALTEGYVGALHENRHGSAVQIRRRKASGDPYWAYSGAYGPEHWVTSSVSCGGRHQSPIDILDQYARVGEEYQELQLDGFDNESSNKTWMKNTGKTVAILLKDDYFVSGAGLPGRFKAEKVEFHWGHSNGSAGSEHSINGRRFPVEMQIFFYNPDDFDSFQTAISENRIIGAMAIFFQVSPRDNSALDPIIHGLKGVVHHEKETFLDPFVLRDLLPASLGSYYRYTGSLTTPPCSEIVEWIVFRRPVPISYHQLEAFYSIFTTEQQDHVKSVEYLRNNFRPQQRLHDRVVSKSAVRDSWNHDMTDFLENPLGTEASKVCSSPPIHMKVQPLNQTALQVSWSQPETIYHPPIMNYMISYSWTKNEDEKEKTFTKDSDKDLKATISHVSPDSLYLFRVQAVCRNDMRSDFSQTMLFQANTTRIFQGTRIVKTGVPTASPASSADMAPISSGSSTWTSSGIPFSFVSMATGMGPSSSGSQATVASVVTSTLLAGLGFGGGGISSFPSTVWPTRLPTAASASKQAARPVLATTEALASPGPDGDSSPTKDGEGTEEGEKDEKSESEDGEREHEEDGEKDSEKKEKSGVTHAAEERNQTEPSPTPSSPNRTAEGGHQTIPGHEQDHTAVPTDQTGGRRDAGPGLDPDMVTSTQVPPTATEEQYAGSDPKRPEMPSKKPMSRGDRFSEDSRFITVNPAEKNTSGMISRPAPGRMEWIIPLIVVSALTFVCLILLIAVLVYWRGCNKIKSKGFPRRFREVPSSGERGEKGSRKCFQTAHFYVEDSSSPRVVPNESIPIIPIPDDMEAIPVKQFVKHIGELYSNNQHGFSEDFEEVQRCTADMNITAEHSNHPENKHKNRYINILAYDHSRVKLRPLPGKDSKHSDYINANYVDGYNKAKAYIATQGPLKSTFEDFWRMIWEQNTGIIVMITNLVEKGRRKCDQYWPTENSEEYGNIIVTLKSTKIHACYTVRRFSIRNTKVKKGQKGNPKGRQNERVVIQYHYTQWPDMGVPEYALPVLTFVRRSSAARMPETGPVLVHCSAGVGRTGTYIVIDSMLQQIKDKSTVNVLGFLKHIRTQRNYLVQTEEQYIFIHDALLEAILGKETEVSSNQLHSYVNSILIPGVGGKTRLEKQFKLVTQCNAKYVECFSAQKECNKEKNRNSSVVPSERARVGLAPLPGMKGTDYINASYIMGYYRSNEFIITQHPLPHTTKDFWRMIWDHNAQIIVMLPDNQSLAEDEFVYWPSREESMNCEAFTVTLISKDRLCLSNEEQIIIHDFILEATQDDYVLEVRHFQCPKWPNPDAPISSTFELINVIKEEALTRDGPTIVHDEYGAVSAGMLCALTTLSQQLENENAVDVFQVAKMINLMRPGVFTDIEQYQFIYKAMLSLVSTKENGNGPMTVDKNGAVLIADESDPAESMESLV
Description: as §1, §2

[7] = target: T2, CADM1, endogenous in H929 multiple …; test: flow cytometry, H929 + PTPRG siRNA; None 490
[8] = target: T2, CADM1, endogenous in H929 multiple …; test: flow cytometry, H929 + ICAM1 siRNA; None 1.06
[9] = target: T2, CADM1, endogenous in H929 multiple …; test: flow cytometry, H929 + PTPRG siRNA; None 2.13

B1: TH9-0022 (antibody, human IgG1, kappa, L234A L235A, V domains shown)
VH: QSLEESGGRLVTPGTPLTLTCTVSGFSLSSYAMNWVRQAPGKGLEWIGIINSYGSTYYASWAKGRFTISKTSTTVDLKITSPTTEDTATYFCARVTYDSYGYGYAPYGMDLWGPGTLVTVSS
VL: LVMTQTPSSTSNAVGGTVTIKCQASQSIGNVLAWYQQKPGQPPKLLIYAASTLASGVPSRVGGSRSGTEYTLTISGVQREDAATYYCLGSDSDSDIAFGGGTELEILR
notes: also called TH9-022; negative control
- Cells stained (%) [1]: 2.62%
- mAb binding (MFI) [2]: 483
- Cells stained (%) [3]: 1.86%

B2: TH9-0022 (antibody, human IgG1, kappa, L234A L235A, V domains shown)
VH: B1 VH
VL: B1 VL
notes: also called TH9-022; negative control IgG1
- binding result [4]: no binding
- binding result [5]: no binding

B3: HW-1 chimeric rabbit-human IgG1 LA/LA/PG (antibody, V domains shown)
VH: QSLEESGGGLFKPTDTLTLTCTASGFSLGSSYAISWVRQAPGKELEWIGTIDSGRAYYARWAKSRSTITRNTNENTVTLKMTSLTAADTATYFCARDLIPTYSQDIWGPGTLVTISS
VL: SFVLTQPASVQVNLGQTVSLTCTADTLSRRYASWYQQKPGQAPVLLIYRDTSRPSGVPDRFSGSSSGNTATLTISGAQAGDEADYYCATSDGSGNSYQYVFGGGTQLTVTS
notes: Fc-silenced (L234A/L235A/P329G) IgG1, lambda; Alexa Fluor 647-labeled in single-step flow cytometry; Prototype of cluster C-1
- binding result [4]: no binding
- binding result [5]: no binding

B6: HW-97 chimeric rabbit-human IgG1 LA/LA/PG (antibody, V domains shown)
VH: QKQLVESGGRLVTPGTPLTLTCTVTGIDLSSHGMSWVRQAPGKGLEWIGVIYPSGSTWYASWARGRFTISKTSTTVDLKMTSLTTEDTATHFCARGDVGGADNNIWGPGTLVTVSS
VL: B3 VL with N13D, D25E, R30S, N95S, S111G
notes: Fc-silenced (L234A/L235A/P329G) IgG1, lambda; Alexa Fluor 647-labeled in single-step flow cytometry; Prototype of cluster C-97
- mAb binding (MFI) [7]: 7040
- Cells stained (%) [8]: 97.1%
- Cells stained (%) [9]: 94.8%
- Cells stained (%) [3]: 98.1%

The remaining lines, values ahead:

- binding result [6]: no binding
- binding result [4]: no binding
- binding result [5]: no binding
B4: HW-45 chimeric rabbit-human IgG1 LA/LA/PG (antibody, V domains shown)
VH: QKQLVESGGRLVTPGTPLTLTCTVSGFSLSSYAMGWFRQAPGKGLEWIGIINSYGSTYYASWAKGRFTISKTSTTVDLKITSPTTEDTATYFCGRRIGSARFDPWGPGTLVTVSS
VL: B3 VL with R30S, S52R, N95S, Q98R, Y99L, S111G
notes: Fc-silenced (L234A/L235A/P329G) IgG1, lambda; Alexa Fluor 647-labeled in single-step flow cytometry; Prototype of cluster C-45

- binding result [6]: no binding
- binding result [4]: no binding
- mAb binding (MFI) [7]: 5900
- Cells stained (%) [8]: 93.8%
- Cells stained (%) [9]: 85.3%
- Cells stained (%) [3]: 94.3%
B5: HW-101 chimeric rabbit-human IgG1 LA/LA/PG (antibody, V domains shown)
VH: QEQLVESGGRLVTPGTPLTLTCKASGFSLGKYDMSWVRQAPGKGLEWIGTIYAGSGSTWYASWAKGRFTISKTSTTVDLKMTSLTTEDTATYFCARDFLGVNSIWGPGTLVTISS
VL: B3 VL with R30S, G40D, Y48H, S65N, N95S, S96N, Y97F, Q98H, Y99F, S111G
notes: Fc-silenced (L234A/L235A/P329G) IgG1, lambda; Alexa Fluor 647-labeled in single-step flow cytometry; Cluster C-97

- binding result [6]: no binding
- binding result [5]: no binding
- Cells stained (%) [1]: 99.8%
- mAb binding (MFI) [2]: 51900
B7: HW-113 chimeric rabbit-human IgG1 LA/LA/PG (antibody, V domains shown)
VH: QKQLVESGGGLVQPGGSLTLTCTVSGFSLNKYYMGWFRQAPGKGLEWIGVISRSGDTYYSSWAKGRFTISKASTTVDLRITSPTTEDTATYFCARDASSPGFHGDRLDLWGQGTLVTVSS
VL: B3 VL with R30S, S93I, N95S, S96N, Q98L, Y99W, S111G
notes: Fc-silenced (L234A/L235A/P329G) IgG1, lambda; Alexa Fluor 647-labeled in single-step flow cytometry
